Patent publication US20110046068A1 (MEDICAL RESEARCH COUNCIL, published 2011)
Non-standard residues stand in square brackets, D forms with d. No end group written: not given here.

B1: 239 (peptide)
peptide: Ac-[dY][dN]WNSFGWRF-NH2
SMILES: CC(=O)N[C@H](Cc1ccc(O)cc1)C(=O)N[C@H](CC(N)=O)C(=O)N[C@@H](Cc1c[nH]c2ccccc12)C(=O)N[C@@H](CC(N)=O)C(=O)N[C@@H](CO)C(=O)N[C@@H](Cc1ccccc1)C(=O)NCC(=O)N[C@@H](Cc1c[nH]c2ccccc12)C(=O)N[C@@H](CCCNC(=N)N)C(=O)N[C@@H](Cc1ccccc1)C(N)=O
B2: 186 (peptide)
peptide: Ac-NSFGLRF-NH2
notes: kisspeptin-10 analogue; also called Peptide 186; acNSFGLRF
B3: 238 (peptide)
peptide: Ac-[dY]NWNSFG[dW]RF-NH2
SMILES: CC(=O)N[C@H](Cc1ccc(O)cc1)C(=O)N[C@@H](CC(N)=O)C(=O)N[C@@H](Cc1c[nH]c2ccccc12)C(=O)N[C@@H](CC(N)=O)C(=O)N[C@@H](CO)C(=O)N[C@@H](Cc1ccccc1)C(=O)NCC(=O)N[C@H](Cc1c[nH]c2ccccc12)C(=O)N[C@@H](CCCNC(=N)N)C(=O)N[C@@H](Cc1ccccc1)C(N)=O
B4: 211 (peptide)
peptide: YNWNG[dF]GLRF-NH2
modifications: N-terminus assumed
SMILES: CC(C)C[C@H](NC(=O)CNC(=O)[C@@H](Cc1ccccc1)NC(=O)CNC(=O)[C@H](CC(N)=O)NC(=O)[C@H](Cc1c[nH]c2ccccc12)NC(=O)[C@H](CC(N)=O)NC(=O)[C@@H](N)Cc1ccc(O)cc1)C(=O)N[C@@H](CCCNC(=N)N)C(=O)N[C@@H](Cc1ccccc1)C(N)=O
notes: kisspeptin-10 analogue; also called YNWNG[(D)-F]GLRF
B5: 201 (peptide)
peptide: Ac-FGARW-NH2
notes: kisspeptin-10 analogue; also called acFGARW
B6: 206 (peptide)
peptide: Ac-FG[dW]RF-NH2
SMILES: CC(=O)N[C@@H](Cc1ccccc1)C(=O)NCC(=O)N[C@H](Cc1c[nH]c2ccccc12)C(=O)N[C@@H](CCCNC(=N)N)C(=O)N[C@@H](Cc1ccccc1)C(N)=O
notes: kisspeptin-10 analogue; also called acFG[(D)-W]RF
B7: 207 (peptide)
peptide: Ac-FG[dF]RF-NH2
SMILES: CC(=O)N[C@@H](Cc1ccccc1)C(=O)NCC(=O)N[C@H](Cc1ccccc1)C(=O)N[C@@H](CCCNC(=N)N)C(=O)N[C@@H](Cc1ccccc1)C(N)=O
notes: kisspeptin-10 analogue; also called acFG[(D)-F]RF
B8: 203 (peptide)
peptide: Ac-[dF]WLRW-NH2
SMILES: CC(=O)N[C@H](Cc1ccccc1)C(=O)N[C@@H](Cc1c[nH]c2ccccc12)C(=O)N[C@@H](CC(C)C)C(=O)N[C@@H](CCCNC(=N)N)C(=O)N[C@@H](Cc1c[nH]c2ccccc12)C(N)=O
notes: kisspeptin-10 analogue; also called ac[F-(D)]WLRW
B9: 202 (peptide)
peptide: Ac-AGLRW-NH2
notes: kisspeptin-10 analogue; also called acAGLRW
B10: 210 (peptide)
peptide: YNWNGFG[dW]RF-NH2
notes: kisspeptin-10 analogue; also called compound 210
B11: 212 (peptide)
peptide: YNWNG[dW]GLRF-NH2
modifications: N-terminus assumed
SMILES: CC(C)C[C@H](NC(=O)CNC(=O)[C@@H](Cc1c[nH]c2ccccc12)NC(=O)CNC(=O)[C@H](CC(N)=O)NC(=O)[C@H](Cc1c[nH]c2ccccc12)NC(=O)[C@H](CC(N)=O)NC(=O)[C@@H](N)Cc1ccc(O)cc1)C(=O)N[C@@H](CCCNC(=N)N)C(=O)N[C@@H](Cc1ccccc1)C(N)=O
notes: kisspeptin-10 analogue; also called YNWNG[(D)-W]GLRF
B12: 209 (peptide)
peptide: YNWNGFG[dL]RF-NH2
modifications: N-terminus assumed
SMILES: CC(C)C[C@@H](NC(=O)CNC(=O)[C@H](Cc1ccccc1)NC(=O)CNC(=O)[C@H](CC(N)=O)NC(=O)[C@H](Cc1c[nH]c2ccccc12)NC(=O)[C@H](CC(N)=O)NC(=O)[C@@H](N)Cc1ccc(O)cc1)C(=O)N[C@@H](CCCNC(=N)N)C(=O)N[C@@H](Cc1ccccc1)C(N)=O
notes: kisspeptin-10 analogue; also called Peptide 209; YNWNGFG[(D)-L]RF

Key:
[1] = biological target: T1, human gpr-54 receptor (human, UniProt Q969F8 1-398); test: cell-based or functional assay
T1 sequence (Q969F8 whole entry): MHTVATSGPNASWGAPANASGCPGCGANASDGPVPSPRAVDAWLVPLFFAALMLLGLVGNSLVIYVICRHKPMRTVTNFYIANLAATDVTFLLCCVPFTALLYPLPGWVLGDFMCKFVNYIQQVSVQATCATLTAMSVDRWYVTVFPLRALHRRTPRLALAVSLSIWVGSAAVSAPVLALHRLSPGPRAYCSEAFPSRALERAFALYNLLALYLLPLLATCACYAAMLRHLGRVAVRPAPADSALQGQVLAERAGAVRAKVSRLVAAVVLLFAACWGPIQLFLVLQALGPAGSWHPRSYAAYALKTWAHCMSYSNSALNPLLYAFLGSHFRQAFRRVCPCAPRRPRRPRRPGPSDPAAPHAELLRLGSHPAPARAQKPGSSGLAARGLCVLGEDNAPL

[2] = biological target: T1, human gpr-54 receptor; test: cell-based or functional assay; remark: listed apart in the source
[3] = biological target: T1, human gpr-54 receptor; test: whole-cell competition binding against 125I-kisspeptin, CHO cells stably transfected with hGPR54 (CPM); no lower plateau reached at -5 LogM [186]
Method: (§1) Cell monolayers were placed on ice and exposed to 0.5 mls peptide (10 pM-1 uM); the cells were then incubated at 4° C. for 4 hr. After 4 hrs, cells were washed twice with ice cold Dulbecco's phosphate buffered saline (DPBS; with Calcium and Magnesium) and then 0.5 mls 0.1M Sodium Hydroxide (NaOH) were added to cells for 20 minutes, shaking to lyse cells. Lysates were transferred to plastic tubes and bound radioactivity counted on the gamma counter for 60 seconds.

[4] = biological target: T1, human gpr-54 receptor; test: cell-based or functional assay; remark: listed apart in the source
[5] = biological target: T1, human gpr-54 receptor; test: cell-based or functional assay; remark: listed apart in the source
[6] = biological target: T1, human gpr-54 receptor; test: cell-based or functional assay; remark: listed apart in the source
[7] = biological target: T1, human gpr-54 receptor; test: cell-based or functional assay; remark: listed apart in the source
[8] = biological target: T1, human gpr-54 receptor; test: whole-cell competition binding against 125I-kisspeptin, CHO cells stably transfected with human GPR54 (CPM); no lower plateau reached at -5 LogM [211]
Method: as §1

[9] = biological target: T1, human gpr-54 receptor; test: cell-based or functional assay; remark: listed apart in the source
[10] = biological target: T1, human gpr-54 receptor; test: whole-cell competition binding against 125I-kisspeptin, CHO cells stably transfected with GPR54 (CPM); the fall of the curve lies between Total and -10 LogM [201]
Method: as §1

[11] = biological target: T1, human gpr-54 receptor; test: whole-cell competition binding against 125I-kisspeptin, CHO cells stably transfected with GPR54 (CPM); the fall of the curve lies between Total and -11 LogM [206]
Method: as §1

[12] = biological target: T1, human gpr-54 receptor; test: cell-based or functional assay; remark: listed apart in the source
[13] = biological target: T1, human gpr-54 receptor; test: whole-cell competition binding against 125I-kisspeptin, CHO cells stably transfected with GPR54 (CPM); the drawn curve falls between Total and -10 LogM, which does not fit the printed number [207]
[14] = biological target: T1, human gpr-54 receptor; test: cell-based or functional assay; remark: listed apart in the source
[15] = biological target: T1, human gpr-54 receptor; test: whole-cell competition binding against 125I-kisspeptin, CHO cells stably transfected with GPR54 (CPM); the fall of the curve lies between Total and -11 LogM [203]
Method: as §1

[16] = biological target: T1, human gpr-54 receptor; test: whole-cell competition binding against 125I-kisspeptin, CHO cells stably transfected with GPR54 (CPM); the fall of the curve lies between Total and -11 LogM [202]
Method: as §1

[17] = biological target: T1, human gpr-54 receptor; test: whole-cell competition binding against 125I-kisspeptin, CHO cells stably transfected with GPR54 (CPM) [208]
Method: as §1

[18] = biological target: T1, human gpr-54 receptor; test: cell-based or functional assay; remark: listed apart in the source
[19] = biological target: T1, human gpr-54 receptor; test: whole-cell competition binding against 125I-kisspeptin, CHO cells stably transfected with GPR54 (CPM) [210]
Method: as §1

[20] = biological target: T1, human gpr-54 receptor; test: whole-cell competition binding against 125I-kisspeptin, CHO cells stably transfected with GPR54 (CPM); upper curve, no lower plateau reached at -5 LogM [212]
Method: as §1

[21] = biological target: T1, human gpr-54 receptor; test: cell-based or functional assay; remark: listed apart in the source
[22] = biological target: T1, human gpr-54 receptor; test: whole-cell competition binding against 125I-kisspeptin, CHO cells stably transfected with GPR54 (CPM); the curve falls between Total and -9 LogM [209]
Method: as §1

| Binder | IP stimulation (IC50), peptide alone [2] [nM] | Inhibition of IP stimulation by 10nM Agonist: % Inhibition of Max [2] [%] | Inhibition of IP stimulation by 10nM Agonist: IC50 [2] [nM] | other results |
| --- | --- | --- | --- | --- |
| B1 | 5 | 0 | – | IP dose response, peptide alone: EC50 (unlabelled number beside rising curve) [239] [1]: 4.99 nM |
| B2 | 150 | 70 | – | IC50 [3]: 1850 nM; IP competition with 10nM kisspeptin-10: IC50 [186] [4]: 0.5 nM; IP dose response, peptide alone: EC50 (unlabelled number beside rising curve) [186] [4]: 592 nM |
| Ac-FG[dL]RW-NH2 [191] | 20000 | 79 | – | IP dose response, peptide alone: EC50 (unlabelled number beside rising curve) [191] [5]: 26100 nM |
| B3 | 2800 | 0 | – | IP dose response, peptide alone: EC50 (unlabelled number beside rising curve) [238] [6]: 2820 nM |
| B4 | 2570 | 73 | 1000 | IP competition with 10nM kisspeptin-10: IC50 [211] [7]: 1000 nM; IC50 [8]: 4320 nM |
| B5 | – | 69 | 7 | IP competition with 10nM kisspeptin-10: IC50 [201] [9]: 7 nM; IC50 [10]: 0.00432 nM |
| B6 | – | 68 | 10 | IC50 [11]: 0.0352 pM; IP competition with 10nM kisspeptin-10: IC50 [206] [12]: 10 nM |
| B7 | – | 0 | – | IC50 [13]: 110 nM |
| B8 | 150000 | 71 | 0.1 | IP competition with 10nM kisspeptin-10: IC50 [203] [14]: 0.1 nM; IP dose response, peptide alone: EC50 (unlabelled number beside rising curve; rise only at -5 LogM) [203] [14]: 0.000156 M; IC50 [15]: 0.000307 nM |
| B9 | > 100000 | 64 | 10 | IP competition with 10nM kisspeptin-10: IC50 [202] [14]: 10 nM; IP dose response, peptide alone: EC50 (unlabelled number beside rising curve; rise only at -5 LogM) [202] [14]: 0.00109 M; IC50 [16]: 0.00032 nM |
| YNWNGFGLRF-NH2 (kisspeptin-10 analogue) [208] | 45.6 | 55 | 1000 | IC50 [17]: 70.3 nM; Antagonistic assay with kisspeptin-10: IC50 [208] [18]: 1000 nM |
| B10 | – | 64 | < 0.1 | IP competition with 10nM kisspeptin-10: IC50 [210] [7]: < 0.1 nM; IC50 [19]: 1300 nM |
| B11 | 300000 | 88 | < 0.1 | IC50 [20]: 6330 nM; IP competition with 10nM kisspeptin-10: IC50 [212] [21]: < 0.1 nM; IP dose response, peptide alone: EC50 (unlabelled number beside rising curve; rise only at -5 LogM) [212] [21]: 0.000205 M |
| B12 | – | 81 | 100 | IP competition with 10nM kisspeptin-10: IC50 [209] [18]: 100 nM; IC50 [22]: 0.0157 nM |
